Numbering of substitutions follows the chain as printed. One block for each binder: values may come before it.
Target: T1, biotinylated IL-2 receptor beta gamma heterodimer Fc (IL-2RBG; Acro ILG-H5254) (UniProt P14784 27-239; P31785 23-262, biotinylated)
T1 construct: bought heterodimer
T1 sequence (looked up) 1: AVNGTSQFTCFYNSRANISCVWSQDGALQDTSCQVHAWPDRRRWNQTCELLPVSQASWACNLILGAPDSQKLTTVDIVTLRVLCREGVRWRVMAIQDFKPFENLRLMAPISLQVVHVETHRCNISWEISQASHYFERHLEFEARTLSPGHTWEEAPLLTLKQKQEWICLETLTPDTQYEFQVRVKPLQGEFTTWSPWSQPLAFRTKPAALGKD
T1 sequence (looked up) 2: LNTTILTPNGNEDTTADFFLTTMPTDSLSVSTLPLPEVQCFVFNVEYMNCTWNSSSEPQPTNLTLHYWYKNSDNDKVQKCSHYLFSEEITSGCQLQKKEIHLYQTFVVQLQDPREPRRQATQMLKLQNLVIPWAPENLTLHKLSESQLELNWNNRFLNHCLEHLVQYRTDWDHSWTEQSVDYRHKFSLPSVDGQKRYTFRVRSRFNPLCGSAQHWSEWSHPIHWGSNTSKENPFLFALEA
Assay: ELISA, captured complex, biotin-IL-2RBG 10 nM, PD-1 Fc titrated
Procedure: The DBA-cytokine complexes and control antibody-cytokine complexes were produced in two formats: (1) “Symmetric” immunocytokine (shown in FIG. 2E); or (2) “Asymmetric” immunocytokine (shown in FIG. 2B) by expression in mammalian cells and purified using standard protocols. […] To perform the assay, 384-well ELISA plates were coated with anti-Fc antibody at 1 micrograms/ml in 100 mM bicarbonate solution pH 9.0 overnight at 4° C. and washed twice with SUPERBLOCK™. Antibody-cytokine complexes were then added to each well at a constant concentration of 6 nM and allowed to incubate for 1 hour and washed three times in PBS plus 0.05% TWEEN® 20 (PBST). Titrated concentrations of PD-1 Fc or an IgG1 control Fc were added and allowed to incubate for 15 minutes before the addition of a constant amount of biotinylated IL-2RBG at 10 nM. The plates were incubated for an additional 30 minutes, washed and biotinylated IL-2RBG detection was performed using streptavidin-HRP and standard ELISA protocols.

B1: AF003657 (other)
heavy: APASSSTKKTQLQLEHLLLDLQMILNGINNYKNPKLTRMLTAKFAMPKKATELKHLQCLEEELKPLEEVLNGAQSKNFHLRPRDLISNINVIVLELKGSETTFMCEYADETATIVEFLNRWITFAQSIISTLTGGGGSGGGGSGGGGSGGGGSQVQLVQSGAEVKKPGASVKVSCKASGDTFTRYYVHWVRQAPGQGLEWMGIINPSGGYASYAQKFQGRVTMTRDTSTSTVYMELSSLRSEDTAVYYCAAGLFIWGQGTLVTVSSAKTTAPSVYPLAPVCGDTTGSSVTLGCLVKGYFPEPVTLTWNSGSLSSGVHTFPAVLQSDLYTLSSSVTVTSSTWPSQSITCNVAHPASSTKVDKKIEPRGPTIKPCPPCKCPAPNAAGGPSVFIFPPKIKDVLMISLSPIVTCVVVDVSEDDPDVQISWFVNNVEVHTAQTQTHREDYNSTLRVVSALPIQHQDWMSGKEFKCKVNNKDLGAPIERTISKPKGSVRAPQVYVLPPPEEEMTKKQVTLTCMVTDFMPEDIYVEWTNNGKTELNYKNTEPVLDSDGSYFMYSKLRVEKKNWVERNSYSCSVVHEGLHNHHTTKSFSRTPGK
light: DIQMTQSPSSLSASVGDRVTITCRASQSIGRWLAWYQQKPGKAPKLLIYSASNLETGVPSRFSGSGSGTDFTLTISSLQPEDFATYYCQQYESFPVTFGPGTKVDIKRADAAPTVSIFPPSSEQLTSGGASVVCFLNNFYPKDINVKWKIDGSERQNGVLNSWTDQDSKDSTYSMSSTLTLTKDEYERHNSYTCEATHKTSTSPIVKSFNRNEC
notes: also called AF3657
- binding result: binds

B2: AF003934 (other)
heavy: APASSSTKKTQLQLEHLLLDLQMILNGINNYKNPKLTRMLTAKFAMPKKATELKHLQCLEEELKPLEEVLNGAQSKNFHLRPRDLISNINVIVLELKGSETTFMCEYADETATIVEFLNRWITFAQSIISTLTGGGGSGGGGSGGGGSGGGGSQVQLVQSGAEVKKPGASVKVSCKASGYTFTRYYMHWVRQAPGQGLEWMGIINPRAGYTSYALKFQGRVTMTRDTSTSTVYMELSSLRSEDTAVYYCTSGWDVWGQGTLVTVSSAKTTAPSVYPLAPVCGDTTGSSVTLGCLVKGYFPEPVTLTWNSGSLSSGVHTFPAVLQSDLYTLSSSVTVTSSTWPSQSITCNVAHPASSTKVDKKIEPRGPTIKPCPPCKCPAPNAAGGPSVFIFPPKIKDVLMISLSPIVTCVVVDVSEDDPDVQISWFVNNVEVHTAQTQTHREDYNSTLRVVSALPIQHQDWMSGKEFKCKVNNKDLGAPIERTISKPKGSVRAPQVYVLPPPEEEMTKKQVTLTCMVTDFMPEDIYVEWTNNGKTELNYKNTEPVLDSDGSYFMYSKLRVEKKNWVERNSYSCSVVHEGLHNHHTTKSFSRTPGK
light: B1 light with G30S, R31T, S50A, N53S, E55D, T56S, Y91S, E92Y, P100Q, D105E
notes: also called AF3934
- binding result: binds

B3: AF003740 (other)
heavy 1: B1 heavy with K558D, K588E
heavy 2: QVQLVQSGAEVKKPGASVKVSCKASGDTFTRYYVHWVRQAPGQGLEWMGIINPSGGYASYAQKFQGRVTMTRDTSTSTVYMELSSLRSEDTAVYYCAAGLFIWGQGTLVTVSSAKTTAPSVYPLAPVCGDTTGSSVTLGCLVKGYFPEPVTLTWNSGSLSSGVHTFPAVLQSDLYTLSSSVTVTSSTWPSQSITCNVAHPASSTKVDKKIEPRGPTIKPCPPCKCPAPNAAGGPSVFIFPPKIKDVLMISLSPIVTCVVVDVSEDDPDVQISWFVNNVEVHTAQTQTHREDYNSTLRVVSALPIQHQDWMSGKEFKCKVNNKDLGAPIERTISKPKGSVRAPQVYVLPPPEKEMTKKQVSLTCLVKDFMPEDIYVEWTNNGKTELNYKNTEPVLKSDGSYFMYSKLTVEKKNWVERNSYSCSVVHEGLHNHHTTKSFSRTPGK
light: B1 light with E92N
notes: also called AF3740
- binding result: binds

B4: AF003947 (other)
heavy 1: B1 heavy with K558D, K588E
heavy 2: QVQLVQSGAEVKKPGASVKVSCKASGDTFTRYYVHWVRQAPGQGLEWMGIINPSGGYASYAQKFQGRVTMTRDTSTSTVYMELSSLRSEDTAVYYCAAGLFIWGQGTLVTVSSAKTTAPSVYPLAPVCGDTTGSSVTLGCLVKGYFPEPVTLTWNSGSLSSGVHTFPAVLQSDLYTLSSSVTVTSSTWPSQSITCNVAHPASSTKVDKKIEPRGPTIKPCPPCKCPAPNAAGGPSVFIFPPKIKDVLMISLSPIVTCVVVDVSEDDPDVQISWFVNNVEVHTAQTQTHREDYNSTLRVVSALPIQHQDWMSGKEFKCKVNNKDLGAPIERTISKPKGSVRAPQVYVLPPPEKEMTKKQVSLTCLVKDFMPEDIYVEWTNNGKTELNYKNTEPVLKSDGSYFMYSKLTVEKKNWVERNSYSCSVVHEGLHNHHTTKSFSRTPGGGGSGGGSHHHHHH
light: B1 light with S93R
notes: also called AF3947
- binding result: binds

B5: AF003747 (other)
heavy 1: B1 heavy with K558D, K588E
heavy 2: B3 heavy 2
light: B1 light with W32Y, E92N
notes: also called AF3747
- binding result: binds

B6: AF003644 (other)
heavy: B1 heavy
light: B1 light with E92N
notes: also called AF3644
- binding result: binds

B7: AF003247 (other)
heavy: B1 heavy with Y185H
light: B1 light
notes: also called AF3247
- binding result: binds

Continued, values first:

- binding result: binds
B8: AF003651 (other)
heavy: B1 heavy
light: B1 light with W32Y, E92N
notes: also called AF3651

- binding result: binds
B9: AF003945 (other)
heavy 1: B1 heavy with K558D, K588E
heavy 2: B4 heavy 2
light: B1 light with R31S, E92N
notes: also called AF3945

- binding result: binds
B10: AF003753 (other)
heavy 1: B1 heavy with K558D, K588E
heavy 2: B3 heavy 2
light: B1 light
notes: also called AF3753

- binding result: binds
B11: AF003749 (other)
heavy 1: B1 heavy with K558D, K588E
heavy 2: B3 heavy 2
light: B1 light with W32Y, S50Y, E92N
notes: also called AF3749

- binding result: binds
B12: AF003232 (other)
heavy 1: B1 heavy with Y185H, K558D, K588E
heavy 2: B4 heavy 2 with Y32H
light: B1 light
notes: also called AF3232
